The target of data set [1] is Fc fragment of human IgG4 (IdeS-cleaved; identical for IgG4 and IgG4Pro) (human). As to the kind of experiment: AUC; sedimentation velocity, absorbance 280 nm, 20 °C, 40,000 rpm, three concentrations in 1:3 dilutions from 0.5 mg/mL (0.5, 0.167, 0.056 mg/mL); Figure 2 in 10 mM sodium acetate, 50 mM NaCl, pH 5.0; oligomer told from sw against ~50 kDa.
Data set [2] deals with the molecule itself. Described as above.

Take “Fc fragment of human IgG4 (IdeS-cleaved; identical for IgG4 and IgG4Pro) (domain or fragment)”: the stoichiometry N (usually a count of units in the complex or per binding partner) in data set [1] amounted to 2.

B1: Fc fragment of human IgG2 (IdeS-cleaved) (domain or fragment)
chain: GPSVFLFPPKPKDTLMISRTPEVTCVVVDVSHEDPEVQFNWYVDGVEVHNAKTKPREEQFNSTFRVVSVLTVVHQDWLNGKEYKCKVSNKGLPAPIEKTISKTKGQPREPQVYTLPPSREEMTKNQVSLTCLVKGFYPSDIAVEWESNGQPENNYKTTPPMLDSDGSFFLYSKLTVDKSRWQQGNVFSCSVMHEALHNHYTQKSLSLSPGK
modifications: asparagine (N)-linked glycoforms G0F, G1F, G2F (told of the intact IgGs)
Regarding B1, in data set [2], the “stoichiometry N” value worked out at 2.
